According to patent US20220241335A1 (H LEE MOFFITT CANCER CENTER AND RESEARCH INST5ITUTE, published 2022):
Changes are numbered by the printed parent chain. Blank lines part the entries; values can stand above or below the molecule they belong to.

Columns and labels:
[1] = target: Notch1 (as used for the SPR of Example 1); test: SPR
[2] = target: T1, hNotch 1 (EGF6-EGF13) (human, UniProt P46531 218-526, biotinylated (site not stated)); test: SPR, biotinylated Notch on chip, 1:1 equilibrium binding model
T1 construct: domain: EGF6-EGF13; Immobilised on the SPR chip through biotin; also called biotinylated Notch1
Method: (§1) 100. Next, the binding affinity of each individual variant was determined by surface plasmon resonance. Biotinylated Notch1, Notch2, or Notch3 proteins containing the domains indicated above were immobilized on a surface plasmon resonance sensor chip. Increasing concentrations of WT DLL4 or DLL4.v3 were then flowed over the chip and dissociation constants were determined by fitting the data to a 1:1 equilibrium binding model. As shown in FIG. 4 and Table 3, the binding affinity of DLL4.v3 was at least 3 orders of magnitude stronger than wildtype.

[3] = target: T2, hNotch 2 (EGF6-EGF13) (human, UniProt Q04721 221-530, biotinylated (site not stated)); test: as above
T2 construct: domain: EGF6-EGF13; Immobilised on the SPR chip through biotin; also called biotinylated Notch2
T2 sequence (looked up): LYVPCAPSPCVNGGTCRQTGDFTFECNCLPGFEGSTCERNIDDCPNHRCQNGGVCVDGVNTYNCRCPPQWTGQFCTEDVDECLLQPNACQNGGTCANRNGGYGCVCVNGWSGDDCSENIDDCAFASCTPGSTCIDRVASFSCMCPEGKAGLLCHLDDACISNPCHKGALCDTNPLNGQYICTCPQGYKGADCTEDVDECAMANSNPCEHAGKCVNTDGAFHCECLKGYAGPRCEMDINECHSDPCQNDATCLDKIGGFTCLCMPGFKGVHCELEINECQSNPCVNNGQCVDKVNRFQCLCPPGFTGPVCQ
Method: as §1

[4] = target: T3, hNotch 3 (EGF5-EGF12) (human, UniProt Q9UM47 197-505, biotinylated (site not stated)); test: as above
T3 construct: domain: EGF5-EGF12; Immobilised on the SPR chip through biotin; also called biotinylated Notch3
T3 sequence (looked up): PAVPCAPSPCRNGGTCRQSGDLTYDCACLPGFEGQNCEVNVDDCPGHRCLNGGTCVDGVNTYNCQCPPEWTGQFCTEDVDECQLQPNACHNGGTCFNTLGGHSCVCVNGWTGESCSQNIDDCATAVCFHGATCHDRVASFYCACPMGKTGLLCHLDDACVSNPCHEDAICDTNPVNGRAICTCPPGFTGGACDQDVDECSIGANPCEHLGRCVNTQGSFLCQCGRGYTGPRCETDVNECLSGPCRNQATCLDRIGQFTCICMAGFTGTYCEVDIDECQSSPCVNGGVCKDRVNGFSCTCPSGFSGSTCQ
Method: as §1

[5] = target: T1, hNotch 1 (EGF6-EGF13); test: SPR
Method: as §1

[6] = target: T2, hNotch 2 (EGF6-EGF13); test: SPR
Method: as §1

[7] = target: T3, hNotch 3 (EGF5-EGF12); test: SPR
Method: as §1

Kd [1]: 12.7 µM
Molecule: wild type rat DLL4 (from UniProt D3ZHH1 27-401) (ligand)

Kd [2]: 17.9 µM | Kd [3]: 35.7 µM | Kd [4]: 22 µM
B1: WT hDLL4 (N-EGF3) (ligand)
chain: SGVFQLQLQEFINERGVLASGRPCEPGCRTFFRVCLKHFQAVVSPGPCTFGTVSTPVLGTNSFAVRDDSSGGGRNPLQLPFNFTWPGTFSLIIEAWHAPGDDLRPEALPPDALISKIAIQGSLAVGQNWLLDEQTSTLTRLRYSYRVICSDNYYGDNCSRLCKKRNDHFGHYVCQPDGNLSCLPGWTGEYCQQPICLSGCHEQNGYCSKPAECLCRPGWQGRLCNECIPHNGCRHGTCSTPWQCTCDEGWGGLFCDQDLNYCTHHSPCKNGATCSNSGQRSYTCTCRPGYTGVDCE
notes: also called WT DLL4; wildtype

binding affinity relative to wildtype [5]: ~1000 fold | binding affinity relative to wildtype [6]: ≥ 1000 fold | binding affinity relative to wildtype [7]: ~1000 fold | Kd [2]: 0.02 µM | Kd [3]: 0.0314 µM | Kd [4]: 0.0273 µM
B2: 3a.5_E12 (N-EGF3) (ligand)
chain: B1 chain with G2S, F81L, I117F, H168Y, L180P, N231P, T245L, F254Y, S275R, Q279P
notes: also called DLL4.v3; N3a.5_E12
